The record followed here is patent US20190177417A1 (BIOATLA, published 2019).

The target of assay [1] is T1, Axl protein (human, UniProt P30530 26-451).
T1 construct: extracellular domain; also called human Axl; hAxl
T1 sequence (looked up): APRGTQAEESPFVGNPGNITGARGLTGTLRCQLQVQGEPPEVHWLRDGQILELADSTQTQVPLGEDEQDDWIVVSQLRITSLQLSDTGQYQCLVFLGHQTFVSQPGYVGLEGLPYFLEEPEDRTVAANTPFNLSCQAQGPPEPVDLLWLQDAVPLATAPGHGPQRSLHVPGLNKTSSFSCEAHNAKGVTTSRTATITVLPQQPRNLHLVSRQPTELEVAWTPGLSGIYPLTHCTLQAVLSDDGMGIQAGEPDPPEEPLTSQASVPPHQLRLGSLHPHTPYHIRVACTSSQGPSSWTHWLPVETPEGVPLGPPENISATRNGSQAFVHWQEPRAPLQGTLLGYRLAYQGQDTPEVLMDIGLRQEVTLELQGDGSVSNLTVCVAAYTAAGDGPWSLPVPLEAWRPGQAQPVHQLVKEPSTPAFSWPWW
The assay is described as follows: ELISA, 1:3 dilution, pH 6.0 over pH 7.4.

The target in assay [2] is T1, Axl protein. The assay is described as follows: ELISA, 1:9 dilution, pH 6.0 over pH 7.4. For orientation: ELISA stands for enzyme-linked immunosorbent assay.

B1: LC-H091Q (antibody, V domains shown)
VH: EVQLVQSGAEVKKPGATVKISCKVSGYSFTGHTMNWIRQPPGKGLEWIGLIKPSNGGTSYNQKFKGRVTISADKSISTAYLQWSSLKASDTAMYYCAHGHYESYFAMDYWGQGTLVTVSS
VL: DIQMTQSPSSLSASVGDRVTITCKASQDVSSAVAWYQQKPGQAPRLLIYWASTRHTGVPSRFSGSGSGTEFTLTISSLQPDDFATYYCQEQFSTPLTFGQGTKVEIK
Turning to B1, the “Affinity ELISA CPE mutant ratio (1:3, pH 6.0/7.4)” value in assay [1] was 1.77 ratio. Besides, the “Affinity ELISA CPE mutant ratio (1:9, pH 6.0/7.4)” value in assay [2] came out at 2.01 ratio.

B2: LC-P095W (antibody, V domains shown)
VH: EVQLVQSGAEVKKPGATVKISCKVSGYSFTGHTMNWIRQPPGKGLEWIGLIKPSNGGTSYNQKFKGRVTISADKSISTAYLQWSSLKASDTAMYYCAHGHYESYFAMDYWGQGTLVTVSS
VL: DIQMTQSPSSLSASVGDRVTITCKASQDVSSAVAWYQQKPGQAPRLLIYWASTRHTGVPSRFSGSGSGTEFTLTISSLQPDDFATYYCQEHFSTWLTFGQGTKVEIK
For the molecule B2, the “Affinity ELISA CPE mutant ratio (1:3, pH 6.0/7.4)” value in assay [1] turned out to be 2.15 ratio. Further, the “Affinity ELISA CPE mutant ratio (1:9, pH 6.0/7.4)” value in assay [2] came out at 2.26 ratio.

B3: LC-P095T (antibody, V domains shown)
VH: EVQLVQSGAEVKKPGATVKISCKVSGYSFTGHTMNWIRQPPGKGLEWIGLIKPSNGGTSYNQKFKGRVTISADKSISTAYLQWSSLKASDTAMYYCAHGHYESYFAMDYWGQGTLVTVSS
VL: DIQMTQSPSSLSASVGDRVTITCKASQDVSSAVAWYQQKPGQAPRLLIYWASTRHTGVPSRFSGSGSGTEFTLTISSLQPDDFATYYCQEHFSTTLTFGQGTKVEIK
With B3, in assay [1], the “Affinity ELISA CPE mutant ratio (1:3, pH 6.0/7.4)” value turned out to be 2.5 ratio. Also, the “Affinity ELISA CPE mutant ratio (1:9, pH 6.0/7.4)” value in assay [2] amounted to 2.09 ratio.

B4: LC-L096G (antibody, V domains shown)
VH: EVQLVQSGAEVKKPGATVKISCKVSGYSFTGHTMNWIRQPPGKGLEWIGLIKPSNGGTSYNQKFKGRVTISADKSISTAYLQWSSLKASDTAMYYCAHGHYESYFAMDYWGQGTLVTVSS
VL: DIQMTQSPSSLSASVGDRVTITCKASQDVSSAVAWYQQKPGQAPRLLIYWASTRHTGVPSRFSGSGSGTEFTLTISSLQPDDFATYYCQEHFSTPGTFGQGTKVEIK
For the molecule B4, the “Affinity ELISA CPE mutant ratio (1:3, pH 6.0/7.4)” value in assay [1] is 2.17 ratio. The “Affinity ELISA CPE mutant ratio (1:9, pH 6.0/7.4)” value in assay [2] turned out to be 2.44 ratio.

B5: LC-L096R (antibody, V domains shown)
VH: EVQLVQSGAEVKKPGATVKISCKVSGYSFTGHTMNWIRQPPGKGLEWIGLIKPSNGGTSYNQKFKGRVTISADKSISTAYLQWSSLKASDTAMYYCAHGHYESYFAMDYWGQGTLVTVSS
VL: DIQMTQSPSSLSASVGDRVTITCKASQDVSSAVAWYQQKPGQAPRLLIYWASTRHTGVPSRFSGSGSGTEFTLTISSLQPDDFATYYCQEHFSTPRTFGQGTKVEIK
On to B5, for which the “Affinity ELISA CPE mutant ratio (1:3, pH 6.0/7.4)” value in assay [1] was 2.88 ratio. Besides, the “Affinity ELISA CPE mutant ratio (1:9, pH 6.0/7.4)” value in assay [2] came to 2.18 ratio.

B6: LC-P095V (antibody, V domains shown)
VH: EVQLVQSGAEVKKPGATVKISCKVSGYSFTGHTMNWIRQPPGKGLEWIGLIKPSNGGTSYNQKFKGRVTISADKSISTAYLQWSSLKASDTAMYYCAHGHYESYFAMDYWGQGTLVTVSS
VL: DIQMTQSPSSLSASVGDRVTITCKASQDVSSAVAWYQQKPGQAPRLLIYWASTRHTGVPSRFSGSGSGTEFTLTISSLQPDDFATYYCQEHFSTVLTFGQGTKVEIK
As to B6, the “Affinity ELISA CPE mutant ratio (1:3, pH 6.0/7.4)” value in assay [1] was determined as 1.87 ratio. Moreover, the “Affinity ELISA CPE mutant ratio (1:9, pH 6.0/7.4)” value in assay [2] was 2.13 ratio.

B7: LC-P095S (antibody, V domains shown)
VH: EVQLVQSGAEVKKPGATVKISCKVSGYSFTGHTMNWIRQPPGKGLEWIGLIKPSNGGTSYNQKFKGRVTISADKSISTAYLQWSSLKASDTAMYYCAHGHYESYFAMDYWGQGTLVTVSS
VL: DIQMTQSPSSLSASVGDRVTITCKASQDVSSAVAWYQQKPGQAPRLLIYWASTRHTGVPSRFSGSGSGTEFTLTISSLQPDDFATYYCQEHFSTSLTFGQGTKVEIK
As to B7, the “Affinity ELISA CPE mutant ratio (1:3, pH 6.0/7.4)” value in assay [1] amounted to 2.84 ratio. Also, in assay [2], the “Affinity ELISA CPE mutant ratio (1:9, pH 6.0/7.4)” value was found to be 3.51 ratio.

B8: LC-T097I (antibody, V domains shown)
VH: EVQLVQSGAEVKKPGATVKISCKVSGYSFTGHTMNWIRQPPGKGLEWIGLIKPSNGGTSYNQKFKGRVTISADKSISTAYLQWSSLKASDTAMYYCAHGHYESYFAMDYWGQGTLVTVSS
VL: DIQMTQSPSSLSASVGDRVTITCKASQDVSSAVAWYQQKPGQAPRLLIYWASTRHTGVPSRFSGSGSGTEFTLTISSLQPDDFATYYCQEHFSTPLIFGQGTKVEIK
B8: the “Affinity ELISA CPE mutant ratio (1:3, pH 6.0/7.4)” value in assay [1] turned out to be 3.09 ratio. Moreover, the “Affinity ELISA CPE mutant ratio (1:9, pH 6.0/7.4)” value in assay [2] was found to be 4.05 ratio.
